Substitutions are numbered along the chain they refer to.
B1: MEDI8897 (antibody, V domains shown)
VH: QVQLVQSGAEVKKPGSSVMVSCQASGGLLEDYIINWVRQAPGQGPEWMGGIIPVLGTVHYGPKFQGRVTITADESTDTAYMELSSLRSEDTAMYYCATETALVVSETYLPHYFDNWGQGTLVTVSS
VL: DIQMTQSPSSLSAAVGDRVTITCQASQDIVNYLNWYQQKPGKAPKLLIYVASNLETGVPSRFSGSGSGTDFSLTISSLQPEDVATYYCQQYDNLPLTFGGGTKVEIKR
B2: F6-47 (antibody, V domains shown)
VH: QVQLLESGGNVVQPGRSLSLSCVASGFALKSYAVHWVRQAPGKGLEWVAFVPYDAVTNYYADSVKGRFTVSRDISKNTVNLHMNRLMGEDTAVYFCARGATSGSYSFLGYNYYMDVWGRGTAVTVSS
VL: QSALTQPASVSGSPGQPITISCTGTSSDVGAYTYVSWYQHHPGKAPKLILFDVTDRPSGVSHRFSGSKSGNTASLTISGLQSEDEAEYYCSSYTDRNTIVFGGGTTLTVL
B3: F6-37 (antibody, V domains shown)
VH: QVHLVESGGNVVHPGTSLSLSCAGSGFTFKSHAIHWVRQAPGRGLEWVAFVPYDGATNYYADSLKGRFTVSRDNSRNTVSLHMNRLEGQDTAVYFCARGATSGSYSFLGYNYYMDVWGRGTTVTVSS
VL: B2 VL with P17S, H40Q, H41L, I49L, S61A, S82A, I99L, T106K
B4: F6-56 (antibody, V domains shown)
VH: QVQLVESGGDVVRPGTSLRLSCAASGFAFRSHALHWVRQAPGKGLEWVSVISYDGGHTNSADSVKGRFTVSRDNSKNILFLQMNSLRIEDTAVYFCARSEGSYRSWPGYFYYMDVWGNGTTVTVSS
VL: QSALTQPASVSGSPGQSITISCIGTSSDVGGYYYVSWYQQHPGKAPKLIIFDVSDRPSGVSSRFSGSQSGNTASLTISGLQAEDEADYYCNSYSSSTTPYVFGSGTKVTVL
B5: F6-49 (antibody, V domains shown)
VH: QVQLVESGGGVVLPGTSLTLSCAASGFTFRHYAIHWVRQTPGGGLEWVAALPYDGSTKYFAESVKDRFTIYRDNSQAAAFLHMSSLTPGDTALYYCARSTYSYEYSFLGYFYYMDVWGRGTSVTVSS
VL: QSALTQPASVSGSPGQSISISCTGTSRDVGAYTYISWSQQHTGQAPKLLIYDVSERPSGVSDRFSGSKTGDTASLAISGLQAEDEAVYYCSSYTDSNTVVFGGGTKVTVL

Each binder was assayed against RSV A2 pre-F (RSV A2) (assay: BLI).
In the case of B1, the Kd is reported as 0.379 nM.

Molecular target: RSV A2 pre-F (RSV A2)
Assay: BLI
Remark: another data set of the same source
Binder B1 has a Kd of 0.122 nM.
With B2 the Kd was 0.343 nM.
B3 showed a Kd of 0.68 nM.
Work on B4 yielded a Kd of 0.381 nM.
With B5 the Kd was 0.713 nM.

Each binder was assayed against RSV A2 pre-F (RSV A2) (assay: ELISA).
Binder B1 has an EC50 of 0.0313 µg/mL.

Molecular target: RSV A2 pre-F (RSV A2)
Assay: ELISA
Remark: another data set of the same source
B1 showed an EC50 of 0.0146 µg/mL.
In the case of B2, the EC50 is reported as 0.00998 µg/mL.
For B3, the EC50 was 0.0117 µg/mL.
In the case of B4, the EC50 is reported as 0.0141 µg/mL.
Binder B5 has an EC50 of 0.0104 µg/mL.
